Drawing on publication PMC8918354, this text covers stoichiometry N for one substance.

The target in the experiment is iron superoxide dismutase SodB from Acinetobacter sp. Ver3 (Acinetobacter sp. Ver3). The experiment in a line: crystal structure; space group C222(1), one molecule per asymmetric unit, dimer formed by crystallographic symmetry; 1.34 Å; crystals grown at 20 °C from 10 mg/ml protein with 1 mM FMN in the mother liquor.

As for “iron superoxide dismutase SodB from Acinetobacter sp. Ver3 (enzyme)”, the stoichiometry N is 2.

For orientation: stoichiometry N means the number of molecules, sites or subunits per partner or assembly.
